1 substance from paper doi:10.1101/2024.06.21.600001 can be followed below.

As usually defined, the stoichiometry N is the number of molecules, sites or subunits per partner or assembly.

The experiment deals with EBOV GP ectodomain, mucin-like domain deleted (EBOV GP[change] ectodomain), Mayinga, residues 33-651, double Strep-tag (Zaire ebolavirus (EBOV), Mayinga) (UniProt Q05320). Put plainly: cryo-EM structure.

“EBOV GP ectodomain, mucin-like domain deleted (EBOV GP[change] ectodomain), Mayinga, residues 33-651, double Strep-tag (from UniProt Q05320 33-651) (domain or fragment)” registered a stoichiometry N of 3.
